This is an account of results in patent US20220016183A1, “EXOSOME AND VARIOUS USES THEREOF” (PROSTEMICS CO., LTD., priority 2018, published 2022).

The subject of one assay is keratinocytes (HaCaT). The experiment in a line: Keratinocyte (HaCaT) proliferation. It counts as cell-based, human. As to conditions: 500 ng/ml, 48 hours, DMEM 1% FBS. On the procedure: (§1) After 48 hours, a change in cell viability was measured, and results thereof are shown in Tables 8 and 9 below and FIGS. 9 and 10.
Another assay deals with human fibroblasts (HDF). The assay can be described thus: Skin fibroblast (HDF) proliferation. As to conditions: 500 ng/ml, 48 hours, DMEM 1% FBS. The class given is cell-based. Here is the method:
as §1

The test system of assay [1] is adipose-derived stem cells (ASC). The experiment in a line: Adipose-derived stem cell (ASC) proliferation, CCK-8. It counts as cell-based. As to conditions: positive control of Table 10 (FBS, 10 wt. % in medium), 24 hours. On the procedure: Adipocytes derived stem cells (ADCs) were cultured in DMEM medium (Invitrogen) containing 10% fetal calf serum and 1% penicillin/streptomycin at 37° C. and 5% CO2 conditions, and the medium was changed every 3 days. After culturing for 24 hours, the cells were treated under the conditions shown in Table 10 below, and further cultured for 24 hours. After removing the treated material from each cell and dispensing the CCK-8 solution thereto, the cells were incubated at 37° C. in a CO2 incubator for 2 hours, and absorbance was measured at 450 nm.

B1: E1: EGF, positive control at 500 ng/ml (protein, UniProt P01133 23-1207, looked up)
Pro-epidermal growth factor: PQHWSCPEGTLAGNGNSTCVGPAPFLIFSHGNSIFRIDTEGTNYEQLVVDAGVSVIMDFHYNEKRIYWVDLERQLLQRVFLNGSRQERVCNIEKNVSGMAINWINEEVIWSNQQEGIITVTDMKGNNSHILLSALKYPANVAVDPVERFIFWSSEVAGSLYRADLDGVGVKALLETSEKITAVSLDVLDKRLFWIQYNREGSNSLICSCDYDGGSVHISKHPTQHNLFAMSLFGDRIFYSTWKMKTIWIANKHTGKDMVRINLHSSFVPLGELKVVHPLAQPKAEDDTWEPEQKLCKLRKGNCSSTVCGQDLQSHLCMCAEGYALSRDRKYCEDVNECAFWNHGCTLGCKNTPGSYYCTCPVGFVLLPDGKRCHQLVSCPRNVSECSHDCVLTSEGPLCFCPEGSVLERDGKTCSGCSSPDNGGCSQLCVPLSPVSWECDCFPGYDLQLDEKSCAASGPQPFLLFANSQDIRHMHFDGTDYGTLLSQQMGMVYALDHDPVENKIYFAHTALKWIERANMDGSQRERLIEEGVDVPEGLAVDWIGRRFYWTDRGKSLIGRSDLNGKRSKIITKENISQPRGIAVHPMAKRLFWTDTGINPRIESSSLQGLGRLVIASSDLIWPSGITIDFLTDKLYWCDAKQSVIEMANLDGSKRRRLTQNDVGHPFAVAVFEDYVWFSDWAMPSVMRVNKRTGKDRVRLQGSMLKPSSLVVVHPLAKPGADPCLYQNGGCEHICKKRLGTAWCSCREGFMKASDGKTCLALDGHQLLAGGEVDLKNQVTPLDILSKTRVSEDNITESQHMLVAEIMVSDQDDCAPVGCSMYARCISEGEDATCQCLKGFAGDGKLCSDIDECEMGVPVCPPASSKCINTEGGYVCRCSEGYQGDGIHCLDIDECQLGEHSCGENASCTNTEGGYTCMCAGRLSEPGLICPDSTPPPHLREDDHHYSVRNSDSECPLSHDGYCLHDGVCMYIEALDKYACNCVVGYIGERCQYRDLKWWELRHAGHGQQQKVIVVAVCVVVLVMLLLLSLWGAHYYRTQKLLSKNPKNPYEESSRDVRSRRPADTEDGMSSCPQPWFVVIKEHQDLKNGGQPVAGEDGQAADGSMQPTSWRQEPQLCGMGTEQGCWIPVSSDKGSCPQVMERSFHMPSYGTQTLEGGVEKPHSLLSANPLWQQRALDPPHQMELTQ
modifications: Pro-epidermal growth factor
notes: EGF, positive control at 500 ng/ml
Take B1: the “HaCaT proliferation rate (%)” value with keratinocytes (HaCaT) came to 160.38%. For the same molecule, in the assay with human fibroblasts (HDF), the “HDF proliferation rate (%)” value is 143.04%. Also, the “ASC proliferation rate (%)” value in assay [1] is 186.10%.
